Assay results published in article PMC10474099, “SLC39A10 promotes malignant phenotypes of gastric cancer cells by activating the CK2-mediated MAPK/ERK and PI3K/AKT pathways” (Experimental & Molecular Medicine, 2023).

Biological target: the molecule itself
Test: native gel or EMSA; native PAGE with Coomassie blue staining; CK2β refolded in 20 mM Tris pH 7.2, 5 mM DTT with 4 μM ZnSO4 (presence of Zn2+); monomer to dimer

B1: CK2β (casein kinase 2 regulatory β subunit), human, recombinant His-tagged (natural protein)
chain: not shown
notes: human CK2β (casein kinase 2 beta subunit), Gene ID 1460, CSNK2B; cloned into pET-28a(+); The plasmid is named pET-28a (+)-HIS-CK2β; also called CSNK2B; HIS-CK2β
stoichiometry N: 2
